Test results taken from a protein production outcome set (Wang et al. 2014).

Assay: label from the status in PepcDB records

Sequence | protein production
MTKMYINTIIEYIDSNIAYSPIVFFSLLILAGLNVPISEDAIVLMGGILSSRKNEYTILIFLGIFWGAYLGDIISFYIGKLMGNKLFKNKKDNNLLDKINYYYGQYGVLTLFIGRFIPFGVRNAIFMSAGMGNMKSNLFIVSDFFATLLSIVVYFTLSFKLGQSFEIIFSKIKIIIFAIFIAVIATTIIIYVIKKNKKVDKNLK | failed
MPDYGHDLLFGAVLTPDAQNPRAVLESARLADRSGLDLVSVPDHPYRPDFLDAWTLLSVIAAHTERVRVFPNVANLPLRPPAGLARAAAALDVLSGGRVELGLGAGGYWDAIAGEGQPRRTPGEAVEALAEAIDVIRALWASGGAGATVDGTHYRLDGARPGPPAAHPLGIWVGALGPRMLRLIGRTADGWLPSATRVPPAELAVGQRIVDEAAIAAGRDPRAVRRLYNLP | failed
MKIYHKFLLYQNKLLKPYVRILLGLVEALTYLASLLLIVGVVYEHGFPLSPVEVQQIQILYKAVWIIFLIDVTLHISLEYRNTKKQYRRLAWILSVLLYLTLVPVIFHRPEEEGAILQVWEFLHGKFYHLILLLVFSLLNLSNGLVRLLGRRTNPSLILAVSFMAIILIGTGLLMLPRCTVNGITWVDSLFTATSAVCVTGLVPVDVSTTFTTSGLVVIILLIQIGGLGVMTLTSFFAMFFMGNTSIYNQLVVRDMVSSNSLGSLLSTLLYILGFTLVIEGIGMVSIWFSIHDTLGMNLEEELAFAAFHSISAFCNAGFSTLSGNLGNSMVMTNHNWLFISVSLLIILGGIGFPILVNFKDIVLYHLRHVWTFVRTRKLERHKMPHLYNLNTKIVLIMTFLLLLIGTLAILAFEWNASFAGMSVADKWTQAFFNATCPRTAGFSSVDLASLSVQTLLVYLFLMWVGGGSQSTAGGVKVNAFAVVVLNLVAVLRGSERVEVFGRELSHDSIRRSNATVVMSLGVLFLFIFILSILEPKASLLALTFECVSALSTVGSSLNLTPQLCDASKLLVSLLMFIGRVGLITLMLGIVKQKKNTKYRYPSDNIIIN | failed
MKIRNACKEDAQQLIAIYASYVEKTAITFEYQVPSLEEFEERIEKTKQKFPYLVAEEEGILQGYAYASVYYNHAAYDWTVELSIYIKEEARGKHIGSQLYASLERNLQEAGFVNLLVCIALPNNASLTFHKKHGYEQVAHFKKVGYKFDKWYDIVWMQKRLLD | failed
MSCGKPQETYSTSSILTREQFEIQHQEEDTIGEQVIFIDGVAYNSRGFRVCGAPNQRGGFCARFGQCPFHKDKVTTFKMSEETVSEFPRQLLTESCNLLQNNERKFKNAWKLDEHHRFLVALKKFGHGNWRQIADYVETRSASQCQSHAQKYYLRKRKLASNANLKRSIFDLIDEDTLSVEIGEEDTWNIIQKCPSKEAQGSVRSRSKTLQRMSTDSSVESYPIRELSTVDSELSTLQTYKQASFFIRIFRNGVFSHGVDLELPNSLASFFIKAAQLLDMSVATKAYTRSGFEISSLHEVCPGDILWISSGEEFIFPSPVQYIET | not failed
MIMVSGCQQQKEETPFYYGTWDEGRAPGPTDGVKSATVTFTEDEVVETEVMEGRGEVQLPFMAYKVISQSTDGSIEIQYLGPYYPLKSTLKRGENGTLIWEQNGQRKTMTRIESKTGREEKDEKSKSLEHHHHHH | not failed
MRKKKDGQNLPDFRKNPPKLDKKAYEKELKRLQAELVDLQQWVVETGARVVIVMEGRDAAGKGSAIKRITQYLNPRSARIEALPTPNSREKGQWYFQRYIEKLPTAGEIVIFDRSWYNRAGVERVMGFCTSQEYRRFLHQAPIFERLLVEDGIHLRKYWFSVSDEEQIERFEDRLSDPLRRWKLSPMDLQSITRWEDYSRAKDEMFIHTDIPSAPWYTVESEDKKRSRINVISHLLSTIPYEKIDRPLPEIPHRPDSESDYVRPPRDEFRYVPDVAAHLEEERIKKEEKAKKAKKPAKAAGKNSDKQKSSGGKGKKKSKK | failed
MTTHDRVRLQLQALEALLREHQHWRNDEPQPHQFNSTQPFFMDTMEPLEWLQWGLIPRMHDLLNNNQPLPGAFAVAPYYEMALATDHPQRALILAELEKLDALFADDASLEHHHHHH | failed
MTNITASIVLYNNPIDQIRQCIESMQADTRVHVLLVDNSEKKGGYTGLAADNVEILDAPGNVGFGRGHNLVLGRLAALRSEVHLVVNPDIVVSAGCVQAVADVLRQRKDVTLVGPRVVSPDGALYRSCKLLPTPWNLFARRFAPRQLYAAADARYELEAFGYDRELRLHNLSGAFLAFRSEAFTALGGFDPRYFMYLEDVDICRRAAGLGAVIFLPQAEVVHEHGKGSYRSWRLLREHMRSAILYFNRFGWFVDAERRLLNRETLARVNDMRSVVLEHHHHHH | failed
MFMNRLFGKPKQETSTLQTLDKLNETLEMLEKKENVLLKKATGEVEKAKEFSRAKNKRAAIQCLKRKRLYEQQVEQLGNFQLRIHDQMIMLEGAKATTETVDALRTGASAMKAMQKATNIDDVDKTMDEINEQTENMKQIQEALSAPFGANDFDEDELEAELDELEGAELEEQLLQPVPIHVPQGNKPARAPAQKQPTAEEDELAALQAEMAL | failed
MGHHHHHHSHMATSRYEPVAEIGVGAYGTVYKARDPHSGHFVALKSVRVPNGGGGGGGLPISTVREVALLRRLEAFEHPNVVRLMDVCATSRTDREIKVTLVFEHVDQDLRTYLDKAPPPGLPAETIKDLMRQFLRGLDFLHANCIVHRDLKPENILVTSGGTVKLADFGLARIYSYQMALTPVVVTLWYRAPEVLLQSTYATPVDMWSVGCIFAEMFRRKPLFCGNSEADQLGKIFDLIGLPPEDDWPRDVSLPRGAFPPRGPRPVQSVVPEMEESGAQLLLEMLTFNPHKRISAFRALQHSYLHK | failed
YRYDEQLNLCLERLSSGKDKNKSVLQNKYVRCSVRAEVRHLRRVLCHRLMLNPQHVQLLFDNEVLPDHMTMKQIWLSRWFGKPSPLLLQYS | failed
MGLEEELLRIAKKLEKMVSRKKTEGALDLLKKLNSCQMSIQLLQTTRIGVAVNGVRKHCSDKEVVSLAKVLIKNWKRLLDSPRTTKGERE | not failed
MTAETSQTLDRGLRVLKLLADTDHGLTVTELSHKLGVNRTVVYRLLATLEQHALVRRDLGGRARVGLGVLGLGRQVHPLVREAAMPALRALAEDIGATAHLTLVDGAEALAVAVVEPTWTDYHVAYRAGFRHPLERGAAGKAILAARQPSQPTGGEAVDDPGYTLTHGELEAGACGAAAPLLGVTGVEGSVGVVMLADVVPERVGERVKHAAREVAEALR | failed
MTQRRATRRRFLMGCSAIASVGLAGCTGGDESTATDSTPSPTDDGDAEPTTTTDEPPATDTATATPDQEAVETLVSVGGDRVPENMALGPDGGLYFGITAGEVRRVPAAETGATGLSLEDTEQIATLPGAIGVEAAPDGTVYVAVATQDDQAGVWEIPLDGDAAQLVEMGGFPNDIHYDADQERLLVTESQNGVVYAVTTDGERSTWLDDDRLETESFGANGITRDADGDIFVAVTRAPEETGRLLRVPVESDGAAGEPSMFFEGGAIFGADGITSRDGDIYVAANSQNRVVRVTADGTTDVVATADNGLVFPSDVLFRTGDQQESLFICNFANQSPEDGAILRTSVPR | failed
MRIFIIKSSTAHTAFDYSIKDIPGTSGRLDLICRSLNAAFQLSHSFRKNVRVYTVLYGPPDPPKTIRFEGAKIKPKTLNPDEVSTAKLIGKILNAGKDIKEPTKEREVLPGIYISRMTFEDVVRKNIKYNLYLLEENGVDIEKVKFPQDNVGFILGDQNGFTEEELNFLEGLVPKITIGPKPYLTSHVIAFVNIYLDRIGIP | failed
AGVSISAQNLIKNEKFATEVTNKVTNPSKATAGEWFIMNNEADGVTTIAWEQTGDAKYPNAMKIDNSGAEKNTSWYKAFLGQRITDGLEKGIYVLTFYAKAKEAGTPVSVYIKQTNEEKNDNGKLNTTFFMRRDYDADAQPNASGAQYNFKIKDADKWTKVVVYYDMGQVVNAISSKKSNPALEVSDTDDDAAILKDCYVAILGQNKGGVVEISDVTLKKK | not failed
MVQQSEVRQMKHSVSTLNQEMTQLNQETVKITQQNRLNAKSSSGVYLLPGAKTPARLESQIGTLRMSLVNITPDADGTTLTLRIQGESNDPLPAFSGTVEYGQIQGTIDNFQEINVQNQLINAPASVLAPSDVDIPLQLKGISVDQLGFVRIHDIQPVMQLEHHHHHH | not failed
MLHSSIVLVIKEETMNVAKMYDDVSERYQKLVDDSHYVGPRWISGKLKTLPIEQGSALDLACATGSIGHVVKNHYPDLTIHGLDISSKMVDKARQTNLYQSVSVHNLDEPFSPLFEQTFDLITALGFTEFLAEPQQLLECISRKLTANGRCFISFQYHDPDGQDLPRNTYSGSVVHTAYTESEVEQLCQQAGLEVVSLENVIGYVSGVGYVCRYLMLELKKSHR | failed
